To fix the notation:
B3: H1 peptide (Hdm2 240-254, SEQ ID NO:27, SVSDQFSVEFEVESL) (peptide)
peptide: Ac-SVSDQFSVEFEVESL-NH2
notes: Synthetic peptide
B6: A1 peptide (human p14ARF 1-14, SEQ ID NO:26, MVRRFLVTLRIRRA) (peptide)
peptide: Ac-MVRRFLVTLRIRRA-NH2
notes: Synthetic peptide; also called human A1 (1-14)

One assay addresses T1, His-tagged Hdm2 210-304 (human, UniProt Q00987 210-304).
T1 construct: not shown: thrombin-cleavable poly-His tag from pET28a
The assay can be described thus: SPR (Biacore), His-tagged Hdm2 210-304 captured by anti-His antibody, mouse Arf peptide as analyte, reference cell subtracted. The protocol: Surface Plasmon Resonance. Binding studies were performed using a Biacore 3000 surface plasmon resonance (SPR) instrument (Biacore, Inc.). A Tetra-His™ Antibody (Qiagen, Inc.; Cat. #34670) was covalently attached to a carboxymethylated gold surface (C-1 chip; Biacore, Inc.). The carboxymethyl groups on the surface were activated with N-ethyl-N-(3-dimethylaminopropyl) carbodiimide (EDC) and N-hydroxysuccinimide (NHS) and the antibody was attached at pH 7.4 in 20 mM sodium phosphate buffer, 150 mM NaCl (PBS). Reactive sites remaining on the surface were blocked by reaction with ethanolamine. The His-tagged ligand was attached to the antibody by injecting a […] solution of the ligand in 10 mM HEPES, 150 mM NaCl, pH 7.4 (HBS-N buffer, Biacore) at a flow rate of 10 μL/Min through the flow cell. A reference cell was prepared similarly except that no His-tagged ligand was added. Binding was measured by flowing the non-His-tagged analyte through the reference and ligand-containing flow cells in sequence. Prior to injection of ligands, the chip surfaces were equilibrated in HBS-N buffer. Changes in the SPR response due to solvent differences and the injection process were monitored by injection of HBS-N buffer alone. Regeneration of the chip surface to remove bound analyte and ligand was accomplished by two 100 μL injections of 10 mM glycine, pH 2.0 through both flow cells. Data reported is-the difference in SPR signal between the flow cell containing analyte and the reference cell. Duplicate injections were made and the SPR response values reported are the average of these two injections.
Two libraries of peptides 15 amino acids in length were synthesized based on the sequence of exon 1β of mouse p19^Arf and the entire sequence of human p14^Arf. The sequence for the first peptide in each library corresponded to the first 15 amino acids of the protein sequences. […] This approach yielded two libraries of overlapping peptides spanning mouse p19^Arf residues 1-64 and human p14^Arf residues 1-132. The ability of these peptides to bind Hdm2 fragments was determined using the surface plasmon resonance (SPR) technique with a Biacore 3000 instrument.

Assay [1] concerns the target B6. The assay can be described thus: CD titration, H1 peptide added stepwise to A1 peptide. The protocol:
(§1) CD spectra were recorded with an Aviv 62DS instrument in 5 mM potassium phosphate (pH 7.0) using a 1 mm cuvette. In FIG. 1A, A1 was 4.5 μM, molar ratios were: 1:0.0, 1:0.1, 1:0.6, 1:0.9, & 1:1.3. In FIG. 1B, H1 was 2.5 μM, molar ratios were: 1:0.2, 1:0.7, 1:1.0, & 1:1.3. Data was collected for 3 seconds in 1 nm steps and 10 scans were averaged for each spectrum. The appearance of a minimum in the CD spectra of the assemblies near […] and the increase in ellipticity near 200 nm is consistent with the formation of β-strand-containing structures.
(§2) An end point was reached when the molar ratio of A1:H1 was 1:1. For example, further additions of the H1 peptide led to the appearance of disordered spectral features consistent with unbound, free H1 peptide (inset, FIG. 6a). The Fourier transform infrared (FT-IR) spectrum of the co-assemblies confirms the CD results and allows the β-structures to be classified as anti-parallel β-strands on the basis of the absorbances at 1618 cm-1 and 1679 cm-1 (FIG. 7) [Casal, H. L.; Kohler, U.; Mantsch, H. H., Biochim Biophys Acta 957:11-20 (1988)]. In summary, the individually disordered A1 and H1 peptides self-assemble into supramolecular structures comprised of anti-parallel β-strands.

The target of assay [2] is B3. The assay can be described thus: CD and 1H NMR titration. The protocol: as §1, §2

Where no end group is shown, it is not given here.

T1 sequence (Q00987 210-304): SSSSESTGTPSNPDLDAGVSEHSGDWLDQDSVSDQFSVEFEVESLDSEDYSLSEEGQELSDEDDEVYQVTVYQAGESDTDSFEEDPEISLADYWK

B1: 21-35 (peptide)
peptide: RVFLVKFVRSRRPRT
modifications: not fully specified
notes: also called mouse p19Arf library peptide, residues 21-35
Take B1: in the assay with His-tagged Hdm2 210-304, the binding result is given as “binds”.

B2: 11-25 (peptide)
peptide: IQRAGRPLQERVFLV
modifications: not fully specified
notes: also called mouse p19Arf library peptide, residues 11-25
On to B2, for which the binding result with His-tagged Hdm2 210-304 is listed as “no binding (tested: not given)”.
B3: the binding result in assay [1] is recorded as “binds”.

B4: 6-20 (peptide)
peptide: LVTVRIQRAGRPLQE
modifications: not fully specified
notes: also called mouse p19Arf library peptide, residues 6-20
For the molecule B4, the binding result with His-tagged Hdm2 210-304 is “binds”.

B5: 41-55 (peptide)
peptide: AFVNMLLRLERILRR
modifications: not fully specified
notes: also called mouse p19Arf library peptide, residues 41-55
Turning to B5, the binding result with His-tagged Hdm2 210-304 is “no binding (tested: not given)”.
B6: the “molar ratio A1:H1 at the end point of the titration” value in assay [2] stood at 1 mol A1 per mol H1.

B7: 26-40 (peptide)
peptide: KFVRSRRPRTASCAL
modifications: not fully specified
notes: also called mouse p19Arf library peptide, residues 26-40
On to B7, for which the binding result with His-tagged Hdm2 210-304 is listed as “binds”.
